Legend:
[1] = target: the molecule itself; experiment: AUC; sedimentation velocity; 0.5 mg/ml in 20 mM phosphate buffer pH 7.4, 18,000 rpm, 20 °C, An50Ti rotor; SEDFIT (Lamm equation); self-association into large oligomers
[2] = target: the molecule itself; experiment: dynamic light scattering; 1 mg/ml in PBS pH 7.4, filtered through 0.22 μm, 25 °C; hydrodynamic radius; self-association

| Protein | stoichiometry N [1] [subunits per oligomer] | binding result [2] |
| --- | --- | --- |
| α-chain of human clusterin (α-Clu), recombinant (domain or fragment, UniProt P10909 23-227, looked up, The printed primers encode M-DQTVSD... at the start and ...RIVR-stop at the end; Printed theoretical subunit mass: 24 kDa; The NdeI site of the forward primer adds an initiator Met before D23; Not glycosylated (bacterial). cDNA came from IMR32 human neuroblastoma cells; also called α-clusterin) DQTVSDNELQEMSNQGSKYVNKEIQNAVNGVKQIKTLIEKTNEERKTLLSNLEEAKKKKEDALNETRESETKLKELPGVCNETMMALWEECKPCLKQTCMKFYARVCRSGSGLVGRQLEEFLNQSSPFYFWMNGDRIDSLLENDRQQTHMLDVMQDHFSRASSIIDELFQDRFFTREPQDTYHYLPFSLPHRRPHFFFPKSRIVR | ~60 | – |
| β-chain of human clusterin (β-Clu), recombinant (domain or fragment, UniProt P10909 228-449, looked up, The printed primers encode M-SLMPFSP... at the start and ...HREE-stop at the end; The NdeI site of the forward primer adds an initiator Met before S228; Not glycosylated (bacterial). cDNA came from IMR32 human neuroblastoma cells; also called β-clusterin) SLMPFSPYEPLNFHAMFQPFLEMIHEAQQAMDIHFHSPAFQHPPTEFIREGDDDRTVCREIRHNSTGCLRMKDQCDKCREILSVDCSTNNPSQAKLRRELDESLQVAERLTRKYNELLKSYQWKMLNTSSLLEQLNEQFNWVSRLANLTQGEDQYYLRVTTVASHTSDSDVPSGVTEVVVKLFDSDPITVTVPVEVSRKNPKFMETVAEKALQEYRKKHREE | – | binds |
